The source of these data is paper PMC11272775, “Epigenetic memory is governed by an effector recruitment specificity toggle in Heterochromatin Protein 1” (Nature Communications, 2024).

Series [1] concerns Swi6-WT (Schizosaccharomyces pombe). Nature of the series: EMSA. As to conditions: 20 mM Hepes pH 7.5, 4 mM Tris, 80 mM KCl, 0.1% Igepal CA-630, 0.2 mM EDTA, 2 mM DTT, 10% glycerol, 10 nM mononucleosome, 30 °C 45 min, 6% acrylamide 0.5x TBE ….
Series [2] concerns the molecule itself. Kind of series: mass photometry; full-length recombinant Swi6 at 2.5-20 nM in 20 mM HEPES pH 7.5, 100 mM KCl; apparent dimerization constants (Kdim) from the relative abundance of monomer and dimer; dimer to monomers.
For series [3], the target named is H3K9me3 mononucleosomes. Kind of series: native gel or EMSA; Swi6 varied, 10 nM mononucleosomes; 20 mM Hepes pH 7.5, 4 mM tris, 80 mM KCl, 0.1% Igepal CA-630, 0.2 mM EDTA, 2 mM DTT, 10% glycerol; 30 °C for 45 min; unbound nucleosome band quantified; apparent K1/2.
Series [4] deals with T1, MBP-Epe1 (S. pombe, UniProt O94603 1-948).
T1 construct: Epe1, S. pombe, full-length; also called MBP-His-TEV-Epe1; recombinant MBP-Epe1 fusion protein; source: Hi5 cells infected with baculovirus, purified (amylose resin, Superdex 200); not shown: MBP, N-terminal, kept
T1 sequence (looked up): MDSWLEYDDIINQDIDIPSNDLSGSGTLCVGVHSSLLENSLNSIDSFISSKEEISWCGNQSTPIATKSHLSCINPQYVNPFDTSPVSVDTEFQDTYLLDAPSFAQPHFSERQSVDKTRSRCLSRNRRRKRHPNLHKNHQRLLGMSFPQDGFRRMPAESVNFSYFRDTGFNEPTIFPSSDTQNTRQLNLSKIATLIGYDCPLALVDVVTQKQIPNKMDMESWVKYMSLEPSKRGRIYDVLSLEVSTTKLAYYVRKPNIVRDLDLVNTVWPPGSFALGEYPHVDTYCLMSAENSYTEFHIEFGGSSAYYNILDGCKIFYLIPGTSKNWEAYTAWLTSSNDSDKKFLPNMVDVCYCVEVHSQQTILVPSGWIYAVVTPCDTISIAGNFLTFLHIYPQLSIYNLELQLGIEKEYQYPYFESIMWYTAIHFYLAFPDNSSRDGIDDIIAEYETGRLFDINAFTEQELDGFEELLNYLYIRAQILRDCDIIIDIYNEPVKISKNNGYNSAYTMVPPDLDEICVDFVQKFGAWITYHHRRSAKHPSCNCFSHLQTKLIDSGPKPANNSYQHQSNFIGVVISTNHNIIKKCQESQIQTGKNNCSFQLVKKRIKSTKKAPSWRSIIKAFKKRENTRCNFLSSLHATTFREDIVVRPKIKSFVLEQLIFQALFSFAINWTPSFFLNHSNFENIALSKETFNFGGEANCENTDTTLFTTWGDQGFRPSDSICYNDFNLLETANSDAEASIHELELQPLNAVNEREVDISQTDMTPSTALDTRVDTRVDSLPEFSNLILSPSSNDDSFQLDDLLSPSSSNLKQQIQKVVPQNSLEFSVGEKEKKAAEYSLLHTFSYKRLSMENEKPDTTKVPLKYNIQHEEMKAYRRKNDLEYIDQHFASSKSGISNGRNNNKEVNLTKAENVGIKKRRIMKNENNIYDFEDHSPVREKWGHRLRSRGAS
Kind of series: pull-down; recombinant 3X FLAG-Swi6 immobilised on FLAG M2 beads, three concentrations of recombinant MBP-Epe1; 20 mM HEPES pH 7.5, 150 mM NaCl, 5 mM MgCl2, 10% glycerol, 0.25% Triton X-100, 1 mM DTT; 2 h at 4 °C; blots with anti-MBP and M2 Flag antibodies. The note with it: both partners purified.

In series [1] (H3K9me3 histone, histone H3K9me3 (DNA unmodified)), H3K9me3 mononucleosome returned a K half of 50 nM.
Take H3K9me0 mononucleosome: in series [1] (H3K9me0 histone, unmodified H3 (H3K9me0)), the binding signal (fold weaker than H3K9me3) came out at 2.4.

B1: Swi6-WT (recombinant, full-length) (natural protein, S. pombe, UniProt P40381 1-328, looked up)
chain: MKKGGVRSYRRSSTSKRSVIDDDSEPELPSMTKEAIASHKADSGSSDNEVESDHESKSSSKKLKENAKEEEGGEEEEEDEYVVEKVLKHRMARKGGGYEYLLKWEGYDDPSDNTWSSEADCSGCKQLIEAYWNEHGGRPEPSKRKRTARPKKPEAKEPSPKSRKTDEDKHDKDSNEKIEDVNEKTIKFADKSQEEFNENGPPSGQPNGHIESDNESKSPSQKESNESEDIQIAETPSNVTPKKKPSPEVPKLPDNRELTVKQVENYDSWEDLVSSIDTIERKDDGTLEIYLTWKNGAISHHPSTITNKKCPQKMLQFYESHLTFRENE
notes: Swi6, HP1 homolog of S. pombe; MW 37,292.6 g/mol; source: E. coli BL21(DE3)-RIPL, purified (Ni-NTA, anion exchange, SEC); not shown: 6XHis, N-terminal, cleaved
In the case of B1, in series [2], the Kd amounted to 0.38 nM and the “stoichiometry N” value worked out at 2. In addition, in series [3], the apparent K1/2 worked out at 50 nM and the specificity for H3K9me3 over H3K9me0 mononucleosomes stood at 2.4 fold.

B2: 3X FLAG-Swi6-WT (recombinant) (natural protein, S. pombe, UniProt P40381 1-328, looked up)
chain: MKKGGVRSYRRSSTSKRSVIDDDSEPELPSMTKEAIASHKADSGSSDNEVESDHESKSSSKKLKENAKEEEGGEEEEEDEYVVEKVLKHRMARKGGGYEYLLKWEGYDDPSDNTWSSEADCSGCKQLIEAYWNEHGGRPEPSKRKRTARPKKPEAKEPSPKSRKTDEDKHDKDSNEKIEDVNEKTIKFADKSQEEFNENGPPSGQPNGHIESDNESKSPSQKESNESEDIQIAETPSNVTPKKKPSPEVPKLPDNRELTVKQVENYDSWEDLVSSIDTIERKDDGTLEIYLTWKNGAISHHPSTITNKKCPQKMLQFYESHLTFRENE
notes: Swi6, HP1 homolog of S. pombe; source: E. coli BL21(DE3)-RIPL, purified (recombinant); not shown: 6XHis, N-terminal, cleaved
In the case of B2, in series [4], the binding result is listed as “binds”.

B3: Swi6-T278K (recombinant, full-length) (natural protein, S. pombe, UniProt P40381 1-328, looked up)
chain: MKKGGVRSYRRSSTSKRSVIDDDSEPELPSMTKEAIASHKADSGSSDNEVESDHESKSSSKKLKENAKEEEGGEEEEEDEYVVEKVLKHRMARKGGGYEYLLKWEGYDDPSDNTWSSEADCSGCKQLIEAYWNEHGGRPEPSKRKRTARPKKPEAKEPSPKSRKTDEDKHDKDSNEKIEDVNEKTIKFADKSQEEFNENGPPSGQPNGHIESDNESKSPSQKESNESEDIQIAETPSNVTPKKKPSPEVPKLPDNRELTVKQVENYDSWEDLVSSIDKIERKDDGTLEIYLTWKNGAISHHPSTITNKKCPQKMLQFYESHLTFRENE
notes: Swi6, HP1 homolog of S. pombe, with T278K; MW 37,319.7 g/mol; also called Swi6-K; source: E. coli BL21(DE3)-RIPL, purified (Ni-NTA, anion exchange, SEC); not shown: 6XHis, N-terminal, cleaved
Take B3: in series [2], the Kd was 0.2 nM and the “stoichiometry N” value was 2.

B4: Swi6-T278Y (recombinant, full-length) (natural protein, S. pombe, UniProt P40381 1-328, looked up)
chain: MKKGGVRSYRRSSTSKRSVIDDDSEPELPSMTKEAIASHKADSGSSDNEVESDHESKSSSKKLKENAKEEEGGEEEEEDEYVVEKVLKHRMARKGGGYEYLLKWEGYDDPSDNTWSSEADCSGCKQLIEAYWNEHGGRPEPSKRKRTARPKKPEAKEPSPKSRKTDEDKHDKDSNEKIEDVNEKTIKFADKSQEEFNENGPPSGQPNGHIESDNESKSPSQKESNESEDIQIAETPSNVTPKKKPSPEVPKLPDNRELTVKQVENYDSWEDLVSSIDYIERKDDGTLEIYLTWKNGAISHHPSTITNKKCPQKMLQFYESHLTFRENE
notes: Swi6, HP1 homolog of S. pombe, with T278Y; MW 37,354.7 g/mol; also called Swi6-Y; source: E. coli BL21(DE3)-RIPL, purified (Ni-NTA, anion exchange, SEC); not shown: 6XHis, N-terminal, cleaved
As to B4, in series [2], the Kd amounted to 0.27 nM and the “stoichiometry N” value was found to be 2. Besides, in series [3], the apparent K1/2 worked out at 39 nM and the specificity for H3K9me3 over H3K9me0 mononucleosomes came to 2.3 fold.
